Where a chain is given by its changes, count along the chain named.
Columns and labels:
His-ABI5 [1] = target: T1, His-ABI5 (UniProt Q9SJN0 1-442); assay: EMSA; suppressed by 50x and 100x unlabeled probe; Chemiluminescent EMSA Kit (Beyotime); binding buffer, salt, pH and temperature not stated (protein eluted in 100 mM HEPES, 500 mM imidazole, pH 7.5); conditions: protein: recombinant; tags: His (pET-30a); label: biotin; blunt
T1 sequence: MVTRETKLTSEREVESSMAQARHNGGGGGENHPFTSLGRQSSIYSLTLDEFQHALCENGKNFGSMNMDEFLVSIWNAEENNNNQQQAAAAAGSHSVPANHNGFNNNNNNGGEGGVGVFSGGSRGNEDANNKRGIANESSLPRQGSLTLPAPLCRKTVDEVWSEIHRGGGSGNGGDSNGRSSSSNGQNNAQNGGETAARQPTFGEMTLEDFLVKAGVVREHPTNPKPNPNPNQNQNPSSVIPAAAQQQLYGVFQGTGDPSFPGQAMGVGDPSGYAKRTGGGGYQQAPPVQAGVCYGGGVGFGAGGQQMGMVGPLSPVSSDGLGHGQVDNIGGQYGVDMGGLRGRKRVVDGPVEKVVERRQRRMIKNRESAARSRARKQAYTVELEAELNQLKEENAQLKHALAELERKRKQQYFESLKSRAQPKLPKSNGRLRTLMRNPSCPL

His-ABI5 [2] = target: T1, His-ABI5; assay: competition; 100x unlabeled mutated competitor against labeled N1; Chemiluminescent EMSA Kit (Beyotime); binding buffer, salt, pH and temperature not stated (protein eluted in 100 mM HEPES, 500 mM imidazole, pH 7.5); conditions: protein: recombinant; tags: His (pET-30a); blunt

B1: proPME31 probe (50 bp) (dsDNA)
DNA 1: TTGAACAAAGAACTGTTACACGTAGAACCAAACAATATGATGAAAAGTAT
DNA 2: ATACTTTTCATCATATTGTTTGGTTCTACGTGTAACAGTTCTTTGTTCAA
- binding result (His-ABI5 [1]): binds

B2: proPME31 mutated probe (mComp) (dsDNA)
DNA 1: B1 DNA 1 with C19A, C21A, G22A, T23A
DNA 2: B1 DNA 2 with A28T, C29T, G30T, G32T
- binding result (His-ABI5 [2]): no binding
